Measurements from paper PMC10799922.

Tests used:
[1] = target: 3C8 iAb_(aff1) Fab (anti-OX40 clone 3C8 engrafted with the iAb_(aff1) residue set, expressed as a monomeric Fab); assay: AUC; sedimentation velocity; 3C8 iAb_(aff1) Fab at 0.6, 0.2 and 0.07 mg/ml in 25 mM histidine acetate pH 5.5, 150 mM NaCl; 20 °C, 50,000 RPM; global fit to a monomer-dimer equilibrium model (dimer to monomers)
[2] = target: 3C8 iAb_(aff1) Fab (anti-OX40 clone 3C8 engrafted with the iAb_(aff1) residue set, expressed as a monomeric Fab)

Kd [1]: 6.8 µM | stoichiometry N [1]: 2 | OX40 agonism of the monomeric Fab in Jurkat OX40 NF-kB luciferase reporter cells; EC50 against the full-length iAb (aff1) IgG [2]: 100 fold
B1: 3C8 iAb_(aff1) Fab (anti-OX40 clone 3C8 engrafted with the iAb_(aff1) residue set, expressed as a monomeric Fab) (Fab, V domains shown)
VH: EVQLVQSGAEVKKPGATVVVLCKASGYAFTNYLIEWVRQAPGQGLEWIGVINPGSGDTYYSEKFKGRVTLFADTSTSQAILILTSLRSEDTAVYYCARDRLDYWGQGTLVTVSS
VL: DIQMTQSPSSLSASVGDRVTITCHASQDISSYIVWYQQKPGKSFKGLIYHGTNLESGVPSRFSGSGSGTDFTLTISSLQPEDFATYYCVHYAQFPYTFGQGTKVEIK
